{"source": "the domain aggregation screens of Martell et al. (2025)", "data": [{"assay": "soluble fraction after stress (log2 fold change); higher = more stays soluble; pooled small domains, quantitative proteomics", "settings": "stress: 75 degC", "values": [{"sequence": "HMAKSDLNYLDFKSKLEAGEIAKASVIRNEDTFKVTLQNGEVYNVTSPDYEDFRKELLEAGVDIQVSK", "soluble fraction (log2)": 0.116}, {"sequence": "HMAKSMRHLIVPSRETSLWRDKLSTNGWLSKGYGIHNLDDYRGIPLNETAPKIIEGLEITELEPIS", "soluble fraction (log2)": 0.124}, {"sequence": "HMAKTALEQAQAMVAAYVAAEQQILLGKEVRMGGPGIDRWLRFEDLQEVRAGRKEWESTVTRLQNTAA", "soluble fraction (log2)": -1.27}, {"sequence": "HMAKTGMDALVGRRVVLTKAIAGEGEGLVAVDGDVWRATSPAGSAIPKGTEVRITGYRSIVLEVEPI", "soluble fraction (log2)": -1.87}, {"sequence": "HMAKYEVVAKDIISRIKQNEFETTLKLPTEDEMIEYYQVSRNTVRSALKLLTSQGIIFSRQGSGFYIRQRS", "soluble fraction (log2)": -1.95}, {"sequence": "HMALALSGVDLNRNRLTISWQTSKGVSYRVQRSSDLQSWTDVGAERLGNGNRLSHTQALNTESAFLRVII", "soluble fraction (log2)": -0.0203}, {"sequence": "HMALEGTLARVSVRIPESGVGEIIFSLGGVRRSEAARSVSGRAIPRGTEVVILSYERGIATVQPYEELLTN", "soluble fraction (log2)": -1.64}, {"sequence": "HMALEVPGIAKDKIYRIFGQLYERQQKWEDAIDYYNRAVFFTLSGTDMILYQEDLSRVKQKISL", "soluble fraction (log2)": -0.283}, {"sequence": "HMALKRVAPQGEDKLSAQLDGVEFDKLIPWLGMLEHDHRIAIVNLSIDRANATGLVNARVIL", "soluble fraction (log2)": 0.115}, {"sequence": "HMALKSGVIAHAVDDAVMRGLNVFTVSDDGSIVSMKDNDIVLGKDGKSPYSVSEWLEELKPNVPHWFG", "soluble fraction (log2)": -0.166}, {"sequence": "HMALKSYEDMVGKTGVAYTVLRPSGKVIINDELFDATARSGMIEKGNEVIIYDYKNAQLIVEK", "soluble fraction (log2)": 0.263}, {"sequence": "HMALPASLSPREREIVSLISQGKTNSEIASLLYISVPTVKTHISNIFQKTGVSNRTSLLNRLRMS", "soluble fraction (log2)": -0.996}, {"sequence": "HMALPHEIKQKWLEEIMTMLRSSDSVTINKVYLHFPENKSHWVDEILTDLSNTHMITRQHDFIRLKN", "soluble fraction (log2)": -0.964}, {"sequence": "HMALQDKYKQLVDTATASGVANLQVREQDGVLYIDGEAPSGSVKDQLWDIYGKIDPNFLSGDVVMNINV", "soluble fraction (log2)": -0.148}, {"sequence": "HMALQLPFSFAKRHKVLVESAHEPVKVYHTPSTDFAVFAEVRRFLDQTFVLEEIAENRFEELLTSSFQRD", "soluble fraction (log2)": -1.1}, {"sequence": "HMALSETIYRLRTEHGLSQGDLAAELDVSRQSISKWETGSSVPELDKLVAMSRLFGVSLDELVLGE", "soluble fraction (log2)": -0.85}, {"sequence": "HMALSLPDDMTIVRKDGSSLEVRLKSRTVTEIHFERISDSETFQFSIDQLDETTRELVEQYPVM", "soluble fraction (log2)": -0.31}, {"sequence": "HMALTAEVLRSLIKHHGLGQSIQRTAKAVGLSASTVKKYFDRIAAANLTWQEAKSRTQEELIASLQPT", "soluble fraction (log2)": -0.813}, {"sequence": "HMALTARDLGLTHRQADVLHLVLQGKPVKLIARDLGLAEGTVKSHVSAVLRALNVTTRTQAIVAAGRLGLM", "soluble fraction (log2)": -2.18}, {"sequence": "HMAMDITLPLAEVRRQSLEQIERQYLNELMSKHLGRINRAAEAAGITTRQLHKLLTKYSIRKEDFK", "soluble fraction (log2)": -1.25}, {"sequence": "HMAMESDELETLVDQLIVDHPDEWSRFVGGDDGDRKKMQGFFTGQIMKATKGQADGRAVAQLLGQKSA", "soluble fraction (log2)": 0.0717}, {"sequence": "HMAMLSKREAEILKLTAKGHSSTDIAQRLTISVNTVEFHRRRIMQKLNAANVAEAVGKAAELGLFF", "soluble fraction (log2)": -2.47}, {"sequence": "HMAMSAGEVVERIREHVGHPATIKELMRVLAIPNEERYRFRRRIKQLVEAGELIRIRGNRYGLADR", "soluble fraction (log2)": -2.83}, {"sequence": "HMAMTITKIEKTSQQKIYYFTDSGRVFKKMSDRSATIAVDDRVELEGGVLGSKFFVTANGSRVKVKEV", "soluble fraction (log2)": -2.9}, {"sequence": "HMAMYSREKLKKLREDRGLTQYELAKIAGISVVTLNKIESSDSAKPFVKTLNKIAQALGVGIDELS", "soluble fraction (log2)": -1.77}, {"sequence": "HMAMYYVIGGDGQQYGPIDEATVRGWLGEGRVSAASLSFKTGEAQWIPLRDRPELADVLATA", "soluble fraction (log2)": -0.137}, {"sequence": "HMANKLSEQIYGSILKDIVNGVYAPREFISEAQIAAKYGVSKAPVKEAMHILASEGFLLSYPKRGYMVN", "soluble fraction (log2)": -0.889}, {"sequence": "HMANKQLQEKLKNYISENGSLSSAAKAIGLSPATLSTYLKDKYEGNVANVETRLTEIFETVEAANNLL", "soluble fraction (log2)": -0.353}, {"sequence": "HMANKTISMTTLKLVIQQLSKGISRQSISAQYHISRNTIKKYEKRIKAMDMKIEDILKLSDEEISNLLQ", "soluble fraction (log2)": -3}, {"sequence": "HMANLNFDMSQIVASRYQEKAAELGVTAPSLARTDYNTQEQATYEFVAREIIADYYDDRVAPFNDLIPE", "soluble fraction (log2)": -0.191}, {"sequence": "HMANNPISMIKIRQILRLHIQGRSKLQIAAQTGISRNTLKKYLKEFEASKLTYDEISELSDKDLEDLFIK", "soluble fraction (log2)": -2.86}, {"sequence": "HMANTSAVIKQPGLVKLFAQHFVRNGFNAMKAAEAAGFVRPSPTFVRNLADSKPVKDAISELLGPYNDA", "soluble fraction (log2)": -0.183}, {"sequence": "HMANWRVGQTINALVSDRMPSGGLLLTVGRQSFVTTRDIPVQPGARIMLEVQQVEPKLVLRLVSA", "soluble fraction (log2)": -1.8}, {"sequence": "HMAPADLSPEERVVLDALALEPVHVDALAAKLGRRSEELLTSLTLMEMRGLAVAHAGSRYSRATMT", "soluble fraction (log2)": -0.14}, {"sequence": "HMAPEEIPLDRVVRLVEQGRVESIVVTGERLEVTLQNGTVYGSTKENGVGFMETLDRYQVPLEQRDFSYEV", "soluble fraction (log2)": -0.148}, {"sequence": "HMAPELRSDAQMRRLWALAKENGLDEVGFRAFISDATGREVESTKSLTATEAHRLIEELEAP", "soluble fraction (log2)": -0.0689}, {"sequence": "HMAPEPFIVQITASSLNVRKGPGTSYAVAQTVSKGQVFTIVQQQGGWGKLKSGAGWISLKYTAR", "soluble fraction (log2)": -1.74}, {"sequence": "HMAPEQWYVLTSGQLPKGPYRLRHIVAMSKGDNWLVARKGAEQWTPLRHLPEFRQAQEANEYIQAIS", "soluble fraction (log2)": -1.48}, {"sequence": "HMAPFSGVEPREWDSLVERGRQSGEVHAEDVTHVLRHVELTGDVLTDVQSKMAEHGITIDDA", "soluble fraction (log2)": 0.161}, {"sequence": "HMAPGASEVPDLTSLPAREALLRLTKLGLLPEMEGTGRLVRQQPAAGTRVPKGSKVHLVFEPG", "soluble fraction (log2)": 0.123}, {"sequence": "HMAPIEVPYNVFRQQVVEGNVESVATRADTVQGYFETPVTLPARPDAAAAEPVTVERFSTTLPSF", "soluble fraction (log2)": 0.27}, {"sequence": "HMAPKRIVLRFGKDISDKPIIYYLVKDYDLVINILKANVNPNKEGTLVLELSGENYDKGIEFLISQGVTVQ", "soluble fraction (log2)": -1.8}, {"sequence": "HMAPKVHLLKVPVDKIREIIGTGGKVIRQITEETGAKIDISDDGSVKVSSPDQSSIDAATTWITGIIAE", "soluble fraction (log2)": -0.0092}, {"sequence": "HMAPLATLEAGEDGSVKLPNLAGHSIREVAAALGGAKLSLIPIGSGTSWKQTPAPGAVLHSGDTVTVYF", "soluble fraction (log2)": 0.243}, {"sequence": "HMAPNDELTRQVISVLSGTPQQAFNYKQISKKLNINDSSERRMVSNILRELAGKGEIVEVYQGKYRSKAPA", "soluble fraction (log2)": -0.0901}, {"sequence": "HMAPPTAEFFAHLPAEALSAVRRSVEEGNARGIDEAILRVETLDGEAGRVLRGLAARYEYGRILELTQR", "soluble fraction (log2)": 0.103}, {"sequence": "HMAPQSAAAILRYLSSGAIRGVGPATAQRIVERFGTDSLEIIQNRPKELAAINGISINKALSISEEYAKQY", "soluble fraction (log2)": -0.741}, {"sequence": "HMAPREELIAIHEALDKLEREDPQVSQLVKLRYFVGMTMAEAADAMDLKKRAAEALWTYGKAWLHREIKKN", "soluble fraction (log2)": -3.24}, {"sequence": "HMAPRIVTIQIPVDKIRDVIGPGGKVIRSIIERTGVKIDVEDDGRVNVASADGDSAQRAIAIIQELTAT", "soluble fraction (log2)": -0.101}, {"sequence": "HMAPSIPSGADIRAAREAAGINLRDFARIVDGPGIAIWSRYETGTPIRVKSISPEVWQKVRDFISQHG", "soluble fraction (log2)": -0.801}, {"sequence": "HMAPTADSVPFVIRSVVGGAQPFIVLEDGSKLLVGGVYRKYRLVAVENTRIIFEGPRTAIVT", "soluble fraction (log2)": -1.51}, {"sequence": "HMAPTPAGNLRSLKSEIVNYTRQSSTAYVYTFKDLSSGELYTARASRYYAAAGDTAYISTAAGAITDM", "soluble fraction (log2)": 0.121}, {"sequence": "HMAPTVPEVVRLEEGAARSAIEAAGLSVGSVEFRASSDPAGTVLATRPIAGRKVRPSSAVDLVLSDGRTP", "soluble fraction (log2)": 0.166}, {"sequence": "HMAPVEEWAKASVMEDPTLVTETMARIFAQQGQIGKARKAYRHLALTYPAKSTYFAAQLKKLNQR", "soluble fraction (log2)": -0.473}, {"sequence": "HMAPVLTATVNTTSGKLNMRAAASATSAKLTSIPRGATVTVLEKGTTWSRISYGGYTGYVMTQYLKFD", "soluble fraction (log2)": -0.523}, {"sequence": "HMAPVVELEDVTIVRGKATLLDRVNWVIDETDRWVIVGPNGAGKTTLLQVVSANLHPTSGKAMILDEVL", "soluble fraction (log2)": 0.176}, {"sequence": "HMAQILEPSVALKKLLELKQAGFEDETLVGWIRKVEFTRPLTPDDLLEWKGAGISQAVIRAAM", "soluble fraction (log2)": -0.302}, {"sequence": "HMAQISDEGLLRGLIVEMFEANPAVVEELLGGRDRKKGFVIGQIMKKTKGMANPALLDQLFYEELEKL", "soluble fraction (log2)": -1.1}, {"sequence": "HMAQTEIPYSEFLREVGNGQIKSVIIEGSEITGFYKTSGTSFNVVAPDDPKLVERLMDQGVEVRAQPT", "soluble fraction (log2)": 0.176}, {"sequence": "HMAQVVMPNVVGKTEKDATATLEGKNLKVNVEYNLDATSDDGIVKEQSIKSGENIDEGTEITLKVNKV", "soluble fraction (log2)": -2.27}, {"sequence": "HMAQWGFNGSEAGDLSFQQGDVIEVVEKVKDDWWRGRVLGSTEIGLFPS", "soluble fraction (log2)": -0.309}, {"sequence": "HMARDDVIRLVQLSLDHLPAKYADALEWKYVEGLSTKEIAARLELGSEAAESLLARARRAFKNDFQEIFES", "soluble fraction (log2)": -1.42}, {"sequence": "HMAREFPGTIIKRGSRGPDVRWIQQHIGVKLVDGVFGRGTERAVKQFQSRRRLKADGIVGRQTWAAIHN", "soluble fraction (log2)": -1.16}, {"sequence": "HMARGATELPYSQLLDRVEAGEITTATTQGNTLLSTARDGKRYITYLPLDTMDEVVPRLDAANVEVKTER", "soluble fraction (log2)": 0.103}, {"sequence": "HMARGLRPVPSVFGLDVRQATRTLYAAGFQVSIARGSDVRTRPAAGTLLRVGSTVQLEMPRMESA", "soluble fraction (log2)": -2.2}, {"sequence": "HMARGTRTRAKLLAAAEVVFARYGYTEASIERITEEAGVGQGTFYLYFASKLEIFEELVDDLNR", "soluble fraction (log2)": -2.88}, {"sequence": "HMARLEELSNGSIVEGLLSGEAVTVVSTKWYGSSSMEVFYKTNRGSTGSQILYREDEPSLTVLEKS", "soluble fraction (log2)": -0.831}, {"sequence": "HMARPLHVDALIHLGTEIGSRVGGAHAGPHLLVAGHSPMSELVYARLLGIPTLGWMRGQLTFVNLSK", "soluble fraction (log2)": 0.0485}, {"sequence": "HMARSKSRQSSVLESVPGLGPSRRRNLLRHFGGLQGVVKAGVEDLMAVRGISRTLAETVYDHLHPGS", "soluble fraction (log2)": -0.735}, {"sequence": "HMARTIINLPLRNSVDESYNTTVNILQANGFKEVSYNGETVWKKGTGLLTAMQYIKIEFTDTTLVVSGWVQ", "soluble fraction (log2)": "≥ 1.04"}]}]}
